According to US7122636:

Target: recombinant human IL-8, (ser-IL-8)72 (human, UniProt P10145 28-99)
Test: inhibition of 125I-IL-8 binding to neutrophils

IC50: 4.9 nM
B1: humanized 6G425 F(ab)-9 (humanized 6G4V11 Fab) (Fab, V domains shown)
VH: EVQLVQSGGGLVQPGGSLRLSCAASGYSFSSHYMHWVRQAPGKGLEWVGYIDPSNGETTYNQKFKGRFTLSRDNSKNTAYLQMNSLRAEDTAVYYCARGDYRYNGDWFFDVWGQGTLVTVSS
VL: DIQMTQSPSSLSASVGDRVTITCRSSQSLVHGIGNTYLHWYQQKPGKAPKLLIYKVSNRFSGVPSRFSGSGSGTDFTLTISSLQPEDFATYYCSQSTHVPLTFGQGTKVEIKR
